The results in this text go back to paper PMC5072174.

In the assay the target is fluorescein-conjugated N-terminal histone H3 peptide with trimethylation at the K9 position (UniProt P68431). In words: fluorescence polarisation. Background: Polarisation of emitted light reports the rotation of a fluorescent probe.
The term Kd denotes the free concentration of one partner at which half of the binding sites on the other are occupied at equilibrium, for simple one-to-one binding. Read a low Kd as tighter binding. For “Mpp8 chromodomain with F59 replaced by 3,4,5-trifluorophenylalanine (from UniProt Q99549 55-116) (domain or fragment)”, the Kd is above 100 µM. Next, “Mpp8 chromodomain with F59 replaced by 3,5-difluorophenylalanine (from UniProt Q99549 55-116) (domain or fragment)”: 12 µM. Next, “Mpp8 chromodomain with F59 replaced by pentafluoro-phenylalanine (from UniProt Q99549 55-116) (domain or fragment)”: above 200 µM.
